Measured values as given in PMC6854852.

Assays:
[1] = test system: T1, SAN8-rBraR (unphosphorylated) D96V (Staphylococcus aureus SAN8 (nisin A-resistant mutant of MW2)), ORF:7b46c191; test: competition; conditions: EMSA: 5 ng DIG-labeled DNA, rBraR (given as 50 mM) in DIG Gel Shift Kit 2nd Generation (Roche) buffer, 6% native PAGE; binding temperature and pH not stated …
T1 sequence: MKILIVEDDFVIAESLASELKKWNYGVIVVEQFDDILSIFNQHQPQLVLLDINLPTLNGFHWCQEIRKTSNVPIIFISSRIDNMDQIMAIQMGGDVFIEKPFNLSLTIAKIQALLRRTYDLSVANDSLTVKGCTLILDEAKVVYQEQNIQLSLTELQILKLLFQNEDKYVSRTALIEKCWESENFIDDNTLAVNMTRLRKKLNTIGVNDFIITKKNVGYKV

[2] = test system: T1, SAN8-rBraR (unphosphorylated) D96V (Staphylococcus aureus SAN8 (nisin A-resistant mutant of MW2)), ORF:7b46c191; test: EMSA; conditions: EMSA: 5 ng DIG-labeled DNA, rBraR (given as 50 mM) in DIG Gel Shift Kit 2nd Generation (Roche) buffer, 6% native PAGE; binding temperature and pH not stated …

Sequence: ATCACTTAGAAAGCACCATTGCTTTTGTCTAATATGTACGATGAATCTGTATCCTCACTCAAAAATCTACTACGTAGCGATAGCTTTCAACTCTGTAAGGTTCAAACATTGAATTGTAAGTTTAGATAAAGGCTACTACTCCAAACATTATTTAAAATGAAATTAAATACAAAAGGAGTGAGACTATGACAATATTATCAGTGCAACATGTTTCAAAAACATACGG (double strand) [vraDE-F1]
- binding [1]: binds
- binding [2]: binds
